Assay: soluble fraction after stress (log2 fold change); higher = more stays soluble; pooled small domains, quantitative proteomics
Conditions: stress: 75 degC
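Note: 20 min heating vs room temperature control held 20 min.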

Sequence | soluble fraction (log2)
HMTMNLIEIGHVVGARRAELGLTQAQLAHLSGLSRQTVVGLEKGTLSDLGVNRVGQVMAVLGLDS | -0.555
HMTMPDFGYMRVSYAEARRQLQAIGISVSTIEKVEDPSHTSATGDMVISQYPAAGSKIEGTVTLYVSVAS | -3.65
HMTMSFSELLRGLRKSRGMSQAELATAVGLSQAQVSQIETGKLLPSPELIEKLAALYGIALGSA | 0.279
HMTMTKELGQRIRAERTARKMTQEELAERADLHPTYIGQVERGEKSLTIASLEKIVEGLGISFSDLFEN | 0.244
HMTMVKYRYLTDGELKEFEEEFKHFLIANGLHSEEWERLNNEDSNKAIEVVALFSNLILDKV | -1.81
HMTMVLPDAARDKLKAIGLSIEHVEPSPVKDIFTVISREGVSYVSKDGDYIFTGSLFHVKGKDVVNTTEQA | 0.0464
HMTNEAFITPSVLEWAIKRAGVSAESIHKKAEQWVSGKARPTFKQAVDIAKTLQIPFGYLWLKEPPKEQ | -0.949
HMTNELVNVNKLLDVMEPSIPLTALEIMTRLGIKSKETLRNSYLNPAIKLGMINLTSPLKPTSKNQMYYK | -1.02
HMTNKSKQRRNEILRASQELFNKKGFHDTSINDIMRRVGAAKGVFYYYFETKDQILDTLIEQHIA | -0.978
HMTNLTPKQQQIYQFIRASTQANGYPPTLREIGQQVGVRSPSTVKYHLDNLRTLGLLHWDGGKTRSITLP | -0.77
HMTNNFIVTWRNYNEEVLEIDVNVKKGSMPKYNGKTPEREGYQFVGWDPEITEVTKDITYVAQFM | -1.92
HMTNQKEITYSQFRQELDQGSIKSVSLQGSRIRGTYVDGGISFRTLAPNDADLIPSLMKHKVDIQVLPED | 0.292
HMTNSTGWSKSGGTQVTIREGETIYNLSRRYGVPAKSIMEANGIADATAVRAGQRISIPTYSY | -0.0378
HMTNVDELIGKEAVVVKEIRPYTTGEVKLDGKVWRAMSESKQVYKVDEIVTVLRIEGVTMII | -2.46
HMTNVETLVRMRLRSIRTTLGYSLDEIAERSNLSASTVSRIETGKRALSIDVLVPLAAALQVSVDDLLRAE | -2.92
HMTNYREILRLRSLGLNHSRIAESMGISRPTVIAALQRAQTQELNWQAAESLSDIDLAQRLNP | -0.847
HMTNYYTVTFKEGDTVLKEVSVHSGDGVPYAVAPKRDDIVGWSYNGNTYTTDLNTLKIKKEVTFTAVT | 0.235
HMTPAIEKTAVIVFINGKKYYVHTVKSGETLYSIAKAYKVDEKVIKEHNPNVADGLRIDQTVKIPVPEQVK | -0.549
HMTPAPHESLTDREMEVLKLLAQGLSNQEIADKLFIGVKTVKYHITNIFSKLGVEDRTQAAIYAHKQGLA | -0.475
HMTPDDSYIAGYAAGILKHQFLIDAPELIVRNGTITIPADKVSAGDRAKVVQILSGIPGVTRVEVG | 0.224
HMTPDVHRGDTITVSLRAGAIRVRVPAKALEEGAAGGEIRVVNLTGGREYRVRVTGPGTAEAIL | -0.966
HMTPEGAYTVSEIVKVINSFADEYKVPFTMHVSGYKYEEIAQQLGLPIGTVKSRIFFARKRLQELLN | -2.45
HMTPEPVTMYITSLTEFRSEPNTEAGIIKLLDAYEEVEMIESRGEWSKISYGDQIGYILSEFLTAENRT | -0.85
HMTPILTAQQVVAALQAAGYRNVHDLEFEHGRWEADAVNAAGQRVELHINPYTGAIERERLD | 0.584
HMTPKTSVPKPGQTVVVRKGDTIYALARIHDITPADLIAWNRLDNPSQIYPGQVIRLYPQGA | -0.563
HMTPKVDLTVAEDGSASAVIAGLRVEIDAAGKVTAVAPADGTTDLSSVAPEAVKEAMDNALAAYTASKG | 0.12

Sequence | soluble fraction (log2)
HMTPLFNQGEVLKGFVLQTGTNNRVLLQIGTAKVLADAQTPLKAGEQLTLRVEATGPRTVLQILG | -0.461
HMTPLILTAQEGGERLDAFVASQVEDLTRSAAQRLLEQGAVTSGGKPLKKNAKTTPGMVVEVLLPDPQ | -0.113
HMTPPPTNSREWMEWGISHGLDANLDRSGQVVFYTDDRVVADAAELSGADLERDNMGQFVIYTGAYDKG | 0.0155
HMTPQEQWNNAYLLAKDYYDANGNLDIDEKYKTKDGFELGSWLTTQRNVYKRGKLSPEKTKKLEEIGISF | 0.0776
HMTPQGALDYSRNAKYLRDQVTAINYLKQARLSLNTTDANYRQTLEQINQAIAKHNQALQQAGVQSQQLAT | -0.00591
HMTPTPQQNNILVGQTGTTLTRLAPMGKVRVGEVTAEAKTIDGYINPRQSVEVIGFENTVVIVRAV | -0.748
HMTPVIINESGGDQDTRIEGLNDNNLLYVDASTDRVGVGVATPTQKLDVNGDVAISGGSLYLSQ | 0.183
HMTPVKAPLPGVVTKINVSVGQQVKKGENVLVLEAMKMENNIAAEADGTVSGIAVKAGDSVLEGAVLLTI | 0.0213
HMTPVTYELTVQSGAGQRIDKYLSEQLADLTRSYLQKLLKDGGVTVNGKTVKSNYKLSENDQIFLEVPDA | 0.0544
HMTPVYLNARQKQILAFLKREEPAKVGDIAHALKTISINTLKKDLLYLRQKNLIESHGVLKGTIYTVK | -1.6
HMTQEFIVPKVTGYTVEDAMNLSGVKDVFEITVDSTEKSDQPAGIILFQDPKDGSSRKSDLVIHVVVSAGS | -0.363
HMTQEQKQQISDQLRAYVEQKGSGNKAAASMNGVSSATISKVLAGKWETISEDMWRSIAAQTGH | 0.325
HMTQFSLTTEEINVLKKSYSEFTDSDKELFNKILEKYNKFKNESSNDIAFEAKILEKLQEIENFYE | -0.00344
HMTQMSVLFSELEAKDAATIADKLRERNIPYELSNNGSTILIPQEVLHDTRLSLASEGLPES | 0.0765
HMTQPAEINRLVEQMGSSDYKSRQEAYERLHQMGPGILDLIYPYRNHADPEIQTRVRELILSYRW | -0.0738
HMTQQNRDELYRRMIDAGWDQLVRNGIRSLRVEQVAAAVGIAKGTFYHFFDSKDDFIYAMLMENRQ | -3.41
HMTQSPLHWSHRPIDLSELLTYLDRDGAFVYASGHKAPFTEVVRGFEHLLNIRLGDPRDVKRSVLQR | -0.109
HMTQTGEVIRWDAERGFGFIATADGRRHVFFHVRDFRGGAAPGVGLRVGFEEIQVGGKGPRAMDVRPL | -1.28
HMTRDGMTKEAFDSLLEDIMNILLDNGLKATTMGSIAKSLKMSKRTLYEIFSSKSQMVEEAIIASHTKMM | 0.214
HMTREAILDTAEELLQRRGYNAFSYHHIAVQLGIRNAAIHYHFPAKEDLGIELVSRFRIRLAE | -0.28
HMTRLSSREAQVISLVRDGMTNQQIAERLELSPLTIKNHVQNILRKLDVSNRAQAVAKAVKARLI | -0.774
HMTRRGPLTEGDRVQVRDPKGRFHQVILVRGGRFQSNRGGFNHDDVIGRPDGQVIITDEGRQFQIL | 0.493
HMTRYEQLAAQIRQQIEDNIWQSGDRLPSLRDTVKQSGLSLMTVLQSYQLLESQGWITARPQSGYYVAHR | 0.284
HMTSGTLTLTQDTPVYTEPNKDGGVAYVQPQGDIQWDKYIFANGDNWYSFVQKNRDQEVRFYIAYSDVG | -0.561
HMTSHSFVITEEVGQRLDRFISDQLDTVSRTMIQKHIRSGAVVVNGKQVKSNYLLVLNDRINIALK | -2.75
HMTSISMDEKVVLGWHQVTTGAANSGMDKVVSNTSGLNVISPTWFKLSDNKGNYISIASKDYVDAAHKKGL | -0.108

Sequence | soluble fraction (log2)
HMTSKTLSADGGENTRLDKFLSNHLPEISRTKIQKMINDGLVYVNQNYAKASLVLDGTELISYTIPD | -0.0211
HMTSLTDDELSVVMLVREREISFDEITSETGFDAARLNSVLTMLKIKGIIDETTGKHYRISGGA | -1.01
HMTSLVRTSNLDGFEPLARSIGVDPVMELMRFGIPPDALIRENMFISFIGFIRLLEHTALAG | 0.364
HMTSMYYLNKAVKEGNAKAIRQLLSAGININVRKRETSTPLDFAIKYKQTEIADLLRKHGGKTAEELKAEE | -0.668
HMTSNEKARNAASAERRADIVAAARELYEEQGLSKTSVQDITNRMGVARSLFYHYFPDKEAVTSAVLDDYV | 0.0232
HMTSPELIELGERIRKRRQEMNLSQEALAEKAGISINTVSRVEGGQTAMSIEIFRKMIEILETDANGL | -0.586
HMTSRIHDYWTSPGQPGYAKIGWGTAGDFRRAKALIGEKIAANSPEDMRYLNQIIAQWHFDALGYWPGDH | -3
HMTSRLLTPRQRYVFDTAMKEGFYDVPRRITLTELASVLDVAKSTLSAQLHRIESTVHHAYADDIRRRS | -2.55
HMTSSQLNIEELERRMMMHLEQNGFITRSIYTNLTGRLKWKATEDLKIFVEKGLIRKMGRGNQMYYVKVE | -1.74
HMTSSQRDSILEFLKTRKDHPTADVVYMNVRKSFPNISLGTVYRNLTLLSDIGQIAKIRVGDGVDHFDADT | -0.505
HMTSSSGTITADWLNVRSGAGTNFSRLGSIAGGTRLTVISVHGEWYKITASFEGEIRTGYVHSQYVQMDGE | -3.87
HMTSTEQQIEQFIGTLVSLGGSAGNQRLLEALGWQDSIYQRVKQQLIDDGRIRPGRGRGGSVVLAE | -0.576
HMTSVAGIERFLASGAIKGMGAATAKLIVEHFGADTLNMLDMYPERLTEIKGIGPKKATAIIEGYRELS | -0.897
HMTSVMAWRLITPIPQHGIIRSSQVQLQKHAPNSLKFLDVDSSPVGKQVKHGIAAGHWLSKDDFTE | -1.05
HMTTAASIGRLVRDARKQRGLTQHELASLLSTSQSAIHRIESGNQNLSLEMINRIAQALESPLIVPGG | -0.377
HMTTIRQQAEVPLSAAGRRFDQALAEMFPAYSRSRLSGWIKAGAATLDGAPAAPRQLLRGGERVELDVELE | -0.166
HMTTKGGLVRDTVLNEFRDSEFTRREVELVLNGVASERTIRGALSEMVERGELTQVNFGISTRYRLNQ | -0.563
HMTTLEGIEKYLGSGMIRGIGPAYAGRLTKVFGEAVFDVIEQSPERLREVEGIGPKRVSRIVSGWAEQ | -0.31
HMTTLLNHLKGTRLEAGLSQQALARLAGISRQAYSALESGSSNPSTEVALRLARALKTSVDHLFSLPE | -1.09
HMTTQVPYTAKLININGGSVVNFRKEPGMNTTIIRTYPVGTEVTVLETGVNWSKVEIDGVTGYVSSYFL | -2.33
HMTTRLLTPRQRQVFDIAIREGFYDSPRRISLTELADLLGVAKSTLSVQLQRVESTIVHTFSEEIRRRS | -2.66
HMTTRQREALLDYLSRHPDQPLTVREIAAGVEPDGVSLSAVYRNLAELEAAGLIRRESRPGSREAVVQYV | -0.0192
HMTTTTTYITNTDAVNIRQQATTSSTSLGKLAKNTILSVKKKSGDWYQITYKKQTAYIHASLVDKKTAKVT | -1.62
HMTTVDYDALRAAILQQVVSEDTTPALTTENTEIKYKFKFGLDTWVDLDGGKIAPAVSAKSYEIQISFKG | 0.185
